In assay [1] the target is T1, linear tetra-ubiquitin (UniProt P0CG48 1-76; P0CG48 1-76; P0CG48 1-76; P0CG48 1-76).
T1 construct: ubiquitin, unit 1 of 4; ubiquitin, unit 2 of 4; ubiquitin, unit 3 of 4; ubiquitin, unit 4 of 4; also called linear tetra-ubiquitin chains; source: bought: LifeSensors (recombinant)
The assay can be described thus: co-IP; purified recombinant HA-N4BP1 or domain deletion forms incubated with ubiquitin chains in assay buffer (50 mM Tris-HCl pH 7.4, 150 mM NaCl, 1 mM dithiothreitol) for 2 h at 4 °C; immunoprecipitation with anti-HA (mouse IgG as control); immunoblot. Conditions: both partners purified. A general note: Immunoblotting shows a protein as a band on a membrane.

The target in assay [2] is T2, linear hepta-ubiquitin (UniProt P0CG48 1-76; P0CG48 1-76; P0CG48 1-76; P0CG48 1-76; P0CG48 1-76; P0CG48 1-76; …).
T2 construct: ubiquitin, unit 1 of 7; ubiquitin, unit 2 of 7; ubiquitin, unit 3 of 7; ubiquitin, unit 4 of 7; ubiquitin, unit 5 of 7; ubiquitin, unit 6 of 7; ubiquitin, unit 7 of 7; The reagents name a supplier only for the tetra-ubiquitins; also called linear ubiquitin chains; linear polyubiquitin chains
Described as above. Conditions: both partners purified.

T2 sequence (P0CG48 1-532, one chain of several): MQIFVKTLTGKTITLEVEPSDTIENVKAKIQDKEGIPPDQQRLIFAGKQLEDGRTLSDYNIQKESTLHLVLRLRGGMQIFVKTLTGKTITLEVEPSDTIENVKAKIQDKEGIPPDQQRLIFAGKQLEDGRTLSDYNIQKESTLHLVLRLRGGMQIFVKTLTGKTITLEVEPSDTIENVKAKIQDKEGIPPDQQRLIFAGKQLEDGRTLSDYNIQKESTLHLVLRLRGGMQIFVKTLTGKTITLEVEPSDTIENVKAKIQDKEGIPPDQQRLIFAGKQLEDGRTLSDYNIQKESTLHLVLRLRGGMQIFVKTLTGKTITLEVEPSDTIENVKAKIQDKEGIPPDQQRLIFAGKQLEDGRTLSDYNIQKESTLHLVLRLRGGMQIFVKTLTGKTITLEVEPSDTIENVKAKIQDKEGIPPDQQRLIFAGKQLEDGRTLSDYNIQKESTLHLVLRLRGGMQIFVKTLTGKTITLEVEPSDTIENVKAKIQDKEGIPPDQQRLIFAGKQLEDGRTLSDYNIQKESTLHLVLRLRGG
T1 sequence (P0CG48 1-304, one chain of several): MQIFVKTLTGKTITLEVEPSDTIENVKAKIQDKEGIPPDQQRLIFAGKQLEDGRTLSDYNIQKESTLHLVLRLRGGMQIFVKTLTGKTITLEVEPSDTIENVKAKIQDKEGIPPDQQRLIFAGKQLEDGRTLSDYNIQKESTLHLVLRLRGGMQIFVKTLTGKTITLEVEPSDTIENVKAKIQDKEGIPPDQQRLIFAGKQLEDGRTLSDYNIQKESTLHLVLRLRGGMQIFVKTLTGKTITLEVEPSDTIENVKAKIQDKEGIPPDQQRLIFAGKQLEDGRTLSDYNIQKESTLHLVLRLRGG

B1: HA-tagged N4BP1 (full-length) (natural protein, UniProt O75113 1-896, looked up)
chain: MAARAVLDEFTAPAEKAELLEQSRGRIEGLFGVSLAVLGALGAEEPLPARIWLQLCGAQEAVHSAKEYIKGICEPELEERECYPKDMHCIFVGAESLFLKSLIQDTCADLCILDIGLLGIRGSAEAVVMARSHIQQFVKLFENKENLPSSQKESEVKREFKQFVEAHADNYTMDLLILPTSLKKELLTLTQGEENLFETGDDEVIEMRDSQQTEFTQNAATGLNISRDETVLQEEARNKAGTPVSELTKQMDTVLSSSPDVLFDPINGLTPDEEALSNERICQKRRFSDSEERHTKKQFSLENVQEGEILHDAKTLAGNVIADLSDSSADSENLSPDIKETTEEMEYNILVNFFKTMGYSQEIVEKVIKVYGPSTEPLLLLEEIEKENKRFQEDREFSAGTVYPETNKTKNKGVYSSTNELTTDSTPKKTQAHTQQNMVEKFSQLPFKVEAKPCTSNCRINTFRTVPIEQKHEVWGSNQNYICNTDPETDGLSPSVASPSPKEVNFVSRGASSHQPRVPLFPENGLHQQPEPLLPNNMKSACEKRLGCCSSPHSKPNCSTLSPPMPLPQLLPSVTDARSAGPSDHIDSSVTGVQRFRDTLKIPYKLELKNEPGRTDLKHIVIDGSNVAITHGLKKFFSCRGIAIAVEYFWKLGNRNITVFVPQWRTRRDPNVTEQHFLTQLQELGILSLTPARMVFGERIASHDDRFLLHLADKTGGIIVTNDNFREFVNESVSWREIITKRLLQYTFVGDIFMVPDDPLGRSGPRLEEFLQKEVCLRDMQPLLSALPNVGMFDPSFRVPGTQAASTSHQPPTRIQGAPSSHWLPQQPHFPLLPALPSLQQNLPMPAQRSSAETNELREALLKIFPDSEQRLKIDQILVAHPYMKDLNALSAMVLD
notes: the vector of the other experiments is only called a mammalian expression vector; also called HA-N4BP1; F.L; source: HEK293T or N4BP1-/- HEK293T, transfected, in lysate; also overexpressed in HEK293T and purified (immunoprecipitation, HA peptide elution, Superdex 200 gel filtration); not shown: HA, N-terminal, kept
Turning to B1, the binding result in assay [1] and in assay [2] was “binds” each time.
